Where a chain is given by its changes, count along the chain named. Names may count otherwise.
B1: chimeric 4E11 antibody cH-cL (antibody, human IgG4 S228P, kappa, V domains shown)
VH: DVQLQESGPGLVKPSQSLSLTCTVTGYSITSDYAWNWIRQFPGNKLEWMGYIGYNGRTSYNPSLKSRISITRDTSKNQFFLQLNYVTTEDTATFYCARLGRGFAYWGQGTLVTVSA
VL: DILMTQSPSSMSVSLGDTVSITCHASQGINSNIGWLLQKPGKSFKGLIYHGTNLEDGVPSRFSGSGSGTDYSLTISSLESEDFADYYCVQYAQFPYTFGGGTKLEIKR
notes: Murine 4E11 V regions on human IgG4(S228P) heavy chain, C-terminal Lys deleted, and human kappa light chain; made in CHO cells; also called chimeric variant
B2: humanized 4E11 antibody hH2-hL2 (antibody, human IgG4 S228P, kappa, V domains shown)
VH: QVQLQESGPGLVKPSQTLSLTCTVSGYSITSDYAWNWIRQPPGKGLEWIGYIGYNGRTSYNPSLKSRVTISRDTSKNQFSLKLSSVTAADTAVYYCARLGRGFAYWGQGTLVTVSS
VL: DIQMTQSPSSLSASVGDRVTITCHASQGINSNIGWLQQKPGKAPKGLIYHGTNLEDGVPSRFSGSGSGTDYTLTISSLQPEDFATYYCVQYAQFPYTFGQGTKLEIKR
B3: humanized 4E11 antibody hH1-hL1 (antibody, human IgG4 S228P, kappa, V domains shown)
VH: B2 VH with R72V
VL: B2 VL with L36Y, G46L
B4: humanized 4E11 antibody hH1-hL3 (antibody, human IgG4 S228P, kappa, V domains shown)
VH: B2 VH with R72V
VL: B2 VL with P44F
B5: humanized 4E11 antibody hH3-hL2 (antibody, human IgG4 S228P, kappa, V domains shown)
VH: B2 VH with I49M, V68I
VL: B2 VL
notes: Human IgG4(S228P), C-terminal Lys deleted, human kappa; made in CHO cells; 16) for this name; 17
B6: humanized 4E11 antibody hH1-hL2 (antibody, human IgG4 S228P, kappa, V domains shown)
VH: B2 VH with R72V
VL: B2 VL
B7: humanized 4E11 antibody hH2-hL3 (antibody, human IgG4 S228P, kappa, V domains shown)
VH: B2 VH
VL: B2 VL with P44F
notes: Human IgG4(S228P), C-terminal Lys deleted, human kappa; made in CHO cells; 17) for this name; 18
B8: humanized 4E11 antibody hH3-hL1 (antibody, human IgG4 S228P, kappa, V domains shown)
VH: B2 VH with I49M, V68I
VL: B2 VL with L36Y, G46L
notes: Human IgG4(S228P), C-terminal Lys deleted, human kappa; made in CHO cells; 18) for this name; 16
B9: humanized 4E11 antibody hH2-hL1 (antibody, human IgG4 S228P, kappa, V domains shown)
VH: B2 VH
VL: B2 VL with L36Y, G46L
notes: Human IgG4(S228P), C-terminal Lys deleted, human kappa; made in CHO cells; 16) for this name; 16
B10: humanized 4E11 antibody hH3-hL3 (antibody, human IgG4 S228P, kappa, V domains shown)
VH: B2 VH with I49M, V68I
VL: B2 VL with P44F
notes: as for B7

Assays:
[1] = target: T1, wild-type epidermal growth factor receptor (EGFR wt) (human, UniProt P00533 25-1210); assay: flow cytometry on U87MG-EGFR wt cells
T1 construct: whole, on cells; also called wt EGFR; WT EGFR
Protocol: Cells overexpressing full length wt EGFR or EGFRvIII were obtained from the laboratory of W. Cavanee (Ludwig Institute for Cancer Research, University of California at San Diego). Cells were grown in DMEM high glucose medium containing 10% FBS and 400 μg/ml G418.
Prior to analysis, cells were plated such that they were not more than 80% confluent on the day of analysis. Unless otherwise stated, all media are kept are 4° C. and all incubations are performed on wet ice. Cells were washed in PBS, harvested by the addition of cell dissociation buffer (Sigma), centrifuged and resuspended in complete medium at a cell density of 2×10⁶ cells/mL. […] Cells were washed twice by centrifugation and further incubated with a FITC labeled F(ab′)₂ goat anti-mouse antibody (Fc specific, #115-096-071, Jackson Immunoresearch, Cedarlane) for an hour. Cells were washed and re-suspended in medium containing Propidium iodide to exclude dead cells from analysis. Samples were filtered through a 60 μm nylon mesh filter plate (Millipore) to remove cell aggregates. Flow cytometry analyses were performed on 2,000 viable single-cells events gated on forward scattering, side scattering parameters and propidium iodide dye exclusion using a BD-LSRFortessa flow cytometer (Becton-Dickinson Biosciences) and a standard filter set using BD FACSDiva™ acquisition software, according to manufacturer's instructions.

[2] = target: epidermal growth factor receptor variant III (EGFRvIII) (human) (UniProt P00533); assay: flow cytometry on U87MG-EGFRvIII cells, apparent KD (KD-app), mean of several experiments

Row | Binder | Bmax @ 300 nM (MFI) [1] | Kd [2]
1 | B1 | 525 MFI | 
2 | B2 |  | 10.5 nM
3 | B3 |  | 9.7 nM
4 | B4 |  | 15.7 nM
5 | B5 | 160 MFI | 7.9 nM
6 | B6 |  | 23 nM
7 | B7 | 1420 MFI | 7.2 nM
8 | B8 | 164 MFI | 4.9 nM
9 | B9 | 319 MFI | 5.8 nM
10 | B10 | 1370 MFI | 7.1 nM
